Where no end group is shown, it is not given here.
T1: calcitonin receptor (human, UniProt P30988 25-474)
T1 sequence (looked up): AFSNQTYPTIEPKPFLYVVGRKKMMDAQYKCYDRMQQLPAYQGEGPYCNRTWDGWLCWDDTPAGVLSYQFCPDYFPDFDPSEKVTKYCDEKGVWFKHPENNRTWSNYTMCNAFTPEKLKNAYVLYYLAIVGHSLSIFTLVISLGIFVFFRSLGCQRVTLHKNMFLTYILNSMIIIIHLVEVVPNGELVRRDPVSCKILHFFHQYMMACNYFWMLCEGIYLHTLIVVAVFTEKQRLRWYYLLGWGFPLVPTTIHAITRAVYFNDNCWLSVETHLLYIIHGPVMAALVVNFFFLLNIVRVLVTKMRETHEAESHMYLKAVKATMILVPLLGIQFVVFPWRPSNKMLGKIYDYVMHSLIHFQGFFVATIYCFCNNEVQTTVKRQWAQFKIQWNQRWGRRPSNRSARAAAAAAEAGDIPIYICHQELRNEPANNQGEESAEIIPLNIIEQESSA


Target: T1, calcitonin receptor
Experiment: cell-based or functional assay

Row | intracellular cAMP in T47D cells, % of native sCT activity, at 50 nM | intracellular cAMP in T47D cells, % of native sCT activity, at 100 nM | intracellular cAMP in T47D cells, % of native sCT activity, at 10 mM (so in the source) | Binder
1 | 98% | 115% | 94.3% | CSNLSTCVLGKLSQELHKLQTYPRTNTGSGTP (ends and bridges not checked; also: mixture of mono-, di- and tri-substituted: SMCC group in amide bond on Lys11, Lys18 and/or N-terminus) [sCT-SMCC]
2 | 102% | 99.8% | 92.8% | CSNLSTCVLGKLSQELHKLQTYPRTNTGSGTP (ends and bridges not checked; also: mixture: SMCC linker carrying thiol bisphosphonate on Lys11, Lys18 and/or N-terminus (2-3 SMCC, 1-3 BP)) [sCT-BP]

Source: patent US20120270787A1 (GOVERNORS OF THE UNIVERSITY OF ALBERTA, published 2012)
